We go through six molecules from patent US20120156198A1 (Hoffmann-La Roche, published 2012).

Numbering of substitutions follows the chain as printed.

For experiment [1], the target named is human IL-18Rα (IL-18R1) on human cells (KG-1 cells, PBMC, TH1-cultured T cells, whole blood) (human) (UniProt Q13478). Put plainly: cell-based or functional assay.
Experiment [2] deals with recombinant human IL-18Rα Fc chimera (R&D Systems, Cat. No. 816-LR) (human) (UniProt Q13478). Put plainly: SPR cross-competition, second experiment; antibody 2 injected on hIL-18Rα hFc held by captured antibody 1 (competitor): Mab840.
For experiment [3] the target is unchanged. The experiment is described as follows: SPR cross-competition, second experiment; antibody 2 injected on hIL-18Rα hFc held by captured antibody 1 (competitor): Mab1G12.
The target is the same in experiment [4]. The experiment is described as follows: SPR cross-competition, second experiment; antibody 2 injected on hIL-18Rα hFc held by captured antibody 1 (competitor): Mab2D11.
Experiment [5] concerns the target T1, human IL-18Rα (IL-18R1) on human cells (KG-1 cells, PBMC, TH1-cultured T cells, whole blood) (human, UniProt Q13478 19-541).
T1 sequence: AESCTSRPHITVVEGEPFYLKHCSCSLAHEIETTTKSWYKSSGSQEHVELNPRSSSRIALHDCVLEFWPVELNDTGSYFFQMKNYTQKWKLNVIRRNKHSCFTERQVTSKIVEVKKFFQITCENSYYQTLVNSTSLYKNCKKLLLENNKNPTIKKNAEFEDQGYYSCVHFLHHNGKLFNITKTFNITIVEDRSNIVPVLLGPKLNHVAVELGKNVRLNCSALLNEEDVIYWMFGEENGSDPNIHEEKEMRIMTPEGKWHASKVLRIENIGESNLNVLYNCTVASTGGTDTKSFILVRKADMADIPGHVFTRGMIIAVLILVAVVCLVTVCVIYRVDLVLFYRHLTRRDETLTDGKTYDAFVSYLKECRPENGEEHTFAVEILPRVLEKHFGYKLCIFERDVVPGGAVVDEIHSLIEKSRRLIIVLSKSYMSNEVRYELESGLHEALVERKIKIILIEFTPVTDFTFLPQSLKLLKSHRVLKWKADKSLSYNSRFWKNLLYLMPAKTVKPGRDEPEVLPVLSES
The experiment is described as follows: cell-based or functional assay.

For the molecule “anti-human IL-18Rα murine MAb Clone 70625 (R&D Systems #MAB840) (antibody)”, the IL-18 induced IFNγ production by human KG-1 cells, IC50 [pM] in experiment [1] stood at 798 pM. Further, the values for the percentage of expected binding response for antibody 2 in experiment [2], in experiment [3] and in experiment [4] were 13%, 97% and 97%, respectively.

B1: humanized Mab1G12-9.6 (antibody, V domains shown)
VH: QVQLVQSGAEVKKPGASVKVSCKASDYTFTSNWMHWVRQAPGQGLEWMGTIDPSDSYTYYNQKFQGRVTMTRDTSTSTVYMELSSLRSEDTAVYYCTTSGDYDADRYFDVWGQGTTVTVSS
VL: EIVLTQSPGTLSLSPGERATLSCRASKSVSTSGDSYMHWYQQKPGQAPRLLIYLASNLETGIPDRFSGSGSGTDFTLTISRLEPEDFAVYYCQQSRELPLSFGQGTKLEIK
In the case of B1, in experiment [5], the “human TH1-assay (IFN-γ after IL-18/IL-12 restimulation), IC90 [pM]” value (shortened to “human TH1-assay”) was 148 pM.

B2: humanized Mab1G12-12.6 (antibody, V domains shown)
VH: B1 VH with D26G, N61A, F64L, R72T, V79A, S84R, E89D
VL: B1 VL
Consider B2, for which, in experiment [5], the “human TH1-assay” value stood at 399 pM.

B3: humanized Mab1G12-10.6 (antibody, V domains shown)
VH: B1 VH with V68A, R72V
VL: B1 VL
B3: the “human TH1-assay” value in experiment [5] was 93.5 pM.

B4: humanized Mab1G12-11.6 (antibody, V domains shown)
VH: B1 VH with D26G, N61A, T76I, V79A, S85R, E89D
VL: B1 VL
As for B4, in experiment [5], the “human TH1-assay” value was determined as 77 pM.

B5: humanized Mab1G12-10.5 (antibody, V domains shown)
VH: B1 VH with V68A, R72V
VL: DIQMTQSPSSLSASVGDRVTITCQASKSVSTSGDSYMHWYQQKPGKAPKLLIYLASNLETGVPSRFSGSGSGTDFTFTISSLQPEDIATYYCQQSRELPLSFGQGTKLEIK
For B5, the “human TH1-assay” value in experiment [5] is 283 pM.
